PMC12727980
pIC50, pKd: −log10 of the molar value.

How the values were obtained:
[1] = target: T1, GST-KH (Bicc1 KH domains) (UniProt Q99MQ1); experiment: competition; conditions: EMSA buffer 1X: 10 mM Tris-HCl pH 8.0, 100 mM KCl, 2.5 mM MgCl2, 2.5% glycerol (slightly below 1X in some mixes); about 1 mM DTT, 0.05 ug/uL yeast tRNA; 50 nM …
T1 sequence (Q99MQ1 whole entry, looked up): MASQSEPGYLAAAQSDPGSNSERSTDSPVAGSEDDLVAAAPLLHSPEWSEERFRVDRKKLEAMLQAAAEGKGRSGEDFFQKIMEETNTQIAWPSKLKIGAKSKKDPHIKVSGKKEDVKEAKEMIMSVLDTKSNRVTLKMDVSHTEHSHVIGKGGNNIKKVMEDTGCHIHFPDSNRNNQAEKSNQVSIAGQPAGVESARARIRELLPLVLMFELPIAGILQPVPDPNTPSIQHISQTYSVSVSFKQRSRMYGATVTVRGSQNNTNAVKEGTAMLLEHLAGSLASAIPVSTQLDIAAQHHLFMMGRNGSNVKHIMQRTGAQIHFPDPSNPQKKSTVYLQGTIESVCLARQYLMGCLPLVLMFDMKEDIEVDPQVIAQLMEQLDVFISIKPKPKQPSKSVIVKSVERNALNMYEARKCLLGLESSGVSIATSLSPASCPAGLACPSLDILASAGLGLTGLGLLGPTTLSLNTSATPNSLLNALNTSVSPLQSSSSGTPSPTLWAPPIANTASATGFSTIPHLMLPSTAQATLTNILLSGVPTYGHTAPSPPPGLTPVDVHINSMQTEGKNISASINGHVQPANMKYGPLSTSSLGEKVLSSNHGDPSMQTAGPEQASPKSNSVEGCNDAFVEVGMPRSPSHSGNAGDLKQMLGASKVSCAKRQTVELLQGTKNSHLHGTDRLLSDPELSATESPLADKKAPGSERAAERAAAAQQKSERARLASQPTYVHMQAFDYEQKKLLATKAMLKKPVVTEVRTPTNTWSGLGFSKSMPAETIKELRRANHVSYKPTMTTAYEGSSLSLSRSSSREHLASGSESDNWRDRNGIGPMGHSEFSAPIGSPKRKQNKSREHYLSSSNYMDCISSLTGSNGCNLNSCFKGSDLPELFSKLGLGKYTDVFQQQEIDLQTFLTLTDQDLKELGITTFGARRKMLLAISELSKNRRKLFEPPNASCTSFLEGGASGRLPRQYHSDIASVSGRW

[2] = target: T1, GST-KH (Bicc1 KH domains); experiment: EMSA; conditions: EMSA buffer 1X: 10 mM Tris-HCl pH 8.0, 100 mM KCl, 2.5 mM MgCl2, 2.5% glycerol (slightly below 1X in some mixes); about 1 mM DTT, 0.05 ug/uL yeast tRNA; 50 nM …

Sequence	pIC50 [1]	pKd [2]
GAAGAAAAAGGUGACCUGAAUGAUGUGCAUCGGGUCAAGAGAGCAGAA [Dand5 3'UTR66-110 Mut untagged competitor]	< 6.00	
GAAGAAAGACGUGACCUGAAUGAUGUGCAUCGGGUCAAGAGAGCAGAAACACGUACCGAGAUGGUGCGC / CGCACCATCTCGGTACGTG [Dand5 3'UTR66-110 WT Tag#2 annealed to Probe #2]		6.96
GAAGAAAGACGUGACCUGAAUGAUGUGCAUCGGGUCAAGAGAGCAGAAUGUCUGGGCAACAGGCUCAGG / CTGAGCCTGTTGCCCAGAC [Dand5 3'UTR66-110 WT Tag#1 annealed to Probe #1]		6.99
